Measured values from publication PMC7486707 (Proceedings of the National Academy of Sciences of the …, 2020).

Target: T1, STM-His6 (SHOOT …) (Arabidopsis thaliana, UniProt Q38874 1-382)
T1 sequence (looked up): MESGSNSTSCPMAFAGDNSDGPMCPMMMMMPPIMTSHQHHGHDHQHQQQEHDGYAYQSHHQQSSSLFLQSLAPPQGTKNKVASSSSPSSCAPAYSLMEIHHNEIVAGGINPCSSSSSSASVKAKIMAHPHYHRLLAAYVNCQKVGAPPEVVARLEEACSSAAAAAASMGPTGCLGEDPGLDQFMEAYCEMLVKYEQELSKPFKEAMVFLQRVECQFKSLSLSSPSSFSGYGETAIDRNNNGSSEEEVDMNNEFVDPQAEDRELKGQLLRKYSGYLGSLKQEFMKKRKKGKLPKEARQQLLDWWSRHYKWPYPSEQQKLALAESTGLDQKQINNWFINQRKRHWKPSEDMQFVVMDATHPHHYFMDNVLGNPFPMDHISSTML
Experiment: pull-down

B1: GST-WUS (WUSCHEL) (natural protein, Arabidopsis thaliana, UniProt Q9SB92 1-292, looked up)
chain: MEPPQHQHHHHQADQESGNNNNNKSGSGGYTCRQTSTRWTPTTEQIKILKELYYNNAIRSPTADQIQKITARLRQFGKIEGKNVFYWFQNHKARERQKKRFNGTNMTTPSSSPNSVMMAANDHYHPLLHHHHGVPMQRPANSVNVKLNQDHHLYHHNKPYPSFNNGNLNHASSGTECGVVNASNGYMSSHVYGSMEQDCSMNYNNVGGGWANMDHHYSSAPYNFFDRAKPLFGLEGHQEEEECGGDAYLEHRRTLPLFPMHGEDHINGGSGAIWKYGQSEVRPCASLELRLN
- binding result: binds
